Earlier results, collected in paper PMC8541618.
Read-outs that look alike come from different tables or passages of the source.

Legend:
[1] = target: VanRA (Enterococcus faecium) (UniProt Q06239)
[2] = target: VanRA (Enterococcus faecium) (UniProt Q06239); remark: listed apart in the source

Sequence of UniProt Q06239 (Q06239 whole entry): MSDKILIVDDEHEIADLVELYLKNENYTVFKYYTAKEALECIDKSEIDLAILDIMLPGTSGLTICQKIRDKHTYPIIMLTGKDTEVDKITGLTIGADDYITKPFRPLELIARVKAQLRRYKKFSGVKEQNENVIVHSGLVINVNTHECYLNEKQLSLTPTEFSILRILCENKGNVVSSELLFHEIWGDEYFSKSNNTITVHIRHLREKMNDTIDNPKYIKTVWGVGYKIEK

Substance | Kd [1] [µM] | Kd [2] [µM]
VanSA cytosolic portion (from UniProt Q06240) | 6.8 | 
VanSA (from UniProt Q06240) |  | 1.9
